Experimental data as given in US20230279147A1 (AELAN CELL TECHNOLOGIES, published 2023).
Values belong to the molecule of their own block, whether it stands above or below them. Where no end group is shown, it is not given here. Me2 = dimethyl on Lys side chain (K(me2))

Columns and labels:
[1] = test system: recombinant human H1.0 protein, full length, unmethylated
H1.0K180me2 peptide = biological target: T1, H1.0K180me2 peptide (human); experiment: ELISA on coated peptides, compared at the antibody concentration that gives the threshold O.D. 1.5
T1 construct: also called H1.0Kme2 peptide
T1 peptide: CAKPVKASKPKKAKPVK(Me2)PK
Protocol: The specificity of the recombinant rabbit anti-H1.0K180me2 monoclonal IgG antibody clones for H1.0K180me2 peptide was determined using ELISA in FIG. 2A. Wells were coated with H1.0K180me2 peptide; 50 ul of peptide solution (5 ug/ml) was used to coat each well. 100 ul of each clone antibody was added to wells in a 2× dilution series. Curves for each peptide were generated by plotting antibody concentration against measured O.D at 450 nm. In order to directly compare the binding efficiencies of the different clones, a threshold cut-off was selected that intersected the linear range of each of the clone titration curves (horizontal dashed line at O.D. 1.5). Clone A (RW24) has the highest binding affinity for H1.0K180me2 peptide.
The non-specific binding of the antibody clones to unmodified H1.0 peptide was also determined by ELISA as above in FIG. 2B. Clones D (RW28) and E (RW36) both bound to unmodified H1.0 peptide with high affinity. At the threshold concentration calculated above, Clone A (RW24) was 20× more efficient at binding H1.0K180me2 peptide than unmodified H1.0 peptide, Clone B (RW6): 23×, Clone C (RW37): 22×, Clone D (RW28): 2×, Clone E (RW36): 5×.

Molecule: recombinant G9A (methyltransferase)
in vitro methylation reaction analysed by LC-MS [1]: G9A specifically methylates several C-terminal lysine residues, including H1.0K180me2

fold more efficient at binding H1.0K180me2 peptide than unmodified H1.0 peptide (H1.0K180me2 peptide): 20 ×
B1: Clone A (RW24), recombinant rabbit anti-H1.0K180me2 monoclonal IgG antibody (antibody, V domains shown)
VH: QSVEESGGRLVTPGTPLTLTCTVSGFSLNNYVMMWVRQAPGEGLEWIAAITTGGTTYYANWAKGRFTISKTSTTVDLKIISPTTEDTATYFCARDLYGDTSDDIWDAFDPWGPGTLVTVSS
VL: DPVLTQTPSSVSAAVGGTVTISCQSSESVYKNNNLAWYQQKPGQPPKLLIYSASTLASGVPSRFKGSGSGTQFTLTISGVQCDDAATYYCLGVYSDIFAF
notes: Tested as a full-length recombinant rabbit monoclonal IgG
